This is an account of results in publication PMC11522930, “2,2-Difluoro Derivatives of Fucose Can Inhibit Cell Surface Fucosylation without Causing Slow Transfer to Acceptors” (JACS Au, 2024).

Substrate in this series: C[C@@H]1O[C@H](OP(=O)(O)OP(=O)(O)OC[C@H]2O[C@@H](n3cnc4c(=O)[nH]c(N)nc43)[C@H](O)[C@@H]2O)[C@@H](O)[C@H](O)[C@@H]1O
As to the kind of experiment: GDP-Glo glycosyltransferase assay, nonlinear regression. In kind it is biochemical, Homo sapiens. As to conditions: saturating biantennary N-glycan acceptor 7; 1 h. From the text: GDP-Glo glycosyltransferase assay, nonlinear regression on FUT8

As usually defined, the Km is the concentration of substrate that gives half-maximal velocity.

B1: FUT8 (Homo sapiens) (protein)
chain: MRPWTGSWRWIMLILFAWGTLLFYIGGHLVRDNDHPDHSSRELSKILAKLERLKQQNEDLRRMAESLRIPEGPIDQGPAIGRVRVLEEQLVKAKEQIENYKKQTRNGLGKDHEILRRRIENGAKELWFFLQSELKKLKNLEGNELQRHADEFLLDLGHHERSIMTDLYYLSQTDGAGDWREKEAKDLTELVQRRITYLQNPKDCSKAKKLVCNINKGCGYGCQLHHVVYCFMIAYGTQRTLILESQNWRYATGGWETVFRPVSETCTDRSGISTGHWSGEVKDKNVQVVELPIVDSLHPRPPYLPLAVPEDLADRLVRVHGDPAVWWVSQFVKYLIRPQPWLEKEIEEATKKLGFKHPVIGVHVRRTDKVGTEAAFHPIEEYMVHVEEHFQLLARRMQVDKKRVYLATDDPSLLKEAKTKYPNYEFISDNSISWSAGLHNRYTENSLRGVILDIHFLSQADFLVCTFSSQVCRVAYEIMQTLHPDASANFHSLDDIYYFGGQNAHNQIAIYAHQPRTADEIPMEPGDIIGVAGNHWDGYSKGVNRKLGRTGLYPSYKVREKIETVKYPTYPEAEK
notes: isolated enzyme; construct not described in main text
As to B1, the Km came to 33.8 ± 2.5 µM.
